Experimental findings from PMC4601027, “Structural Analysis of the Pin1-CPEB1 interaction and its potential role in CPEB1 degradation” (Scientific Reports, 2015) are described below.

This experiment addresses Pin1 WW domain. The experiment is described as follows: ITC titration of unphosphorylated CPEB1 N-terminal fragments with Pin1 WW domain. It is filed as binding. The conditions noted are these: Pin1 WW domain as titrant, fragment as titrate, titrations could not be efficiently saturated, data not shown. The text has this:
CPEB1 proteins display high sequence conservation in vertebrates (Supplementary Fig.1). To gain insight into the association of Pin1 with CPEB1 in the basal state, we prepared two recombinant fragments named NF1 (88–183) and NF2 (196–293), selected from the N-terminal region of CPEB1 (Fig. 1a). The boundaries of these constructs were chosen to be similar to that used by Nechama et al.[14], and were extended to include Ser210, known to be essential for degradation after phosphorylation by Cdc2[9]. Since target recognition of Pin1 is achieved by the interaction of the WW domain with the protein partners, we prepared an ^15N-labeled WW domain sample and monitored the chemical shift perturbations induced in the WW domain by the presence of the ligands (1:1 WW: ligand ratio) using HSQC experiments (Fig. 1b,c). These experiments reveal that, despite the low affinity associations, residues of the WW domain are clearly affected by the presence of the CPEB 1 fragments. Attempts to saturate the NMR titration using high ligand excess were precluded due to the aggregation tendency of the NF1 and NF2 fragments. […]
ITC measurements were performed using a nano ITC calorimeter (TA Instruments) at 12 °C or 25 °C. […] Protein concentration was measured in a NanoDrop™ 2000 measuring the UV absorption at 280 nm. Peptide concentration was determined by amino acid analysis. […]
Background: In ITC the heat of successive injections is recorded.

B1: NF1: recombinant unphosphorylated fragment (88–183) of the N-terminal region of CPEB1 Isoform 1 (Uniprot Q9BZB8) (protein, UniProt Q9BZB8 88-183, looked up, fragment)
chain: GLPDANDLCLGLQSLSLTGWDRPWSTQDSDSSAQSSTHSVLSMLHNPLGNVLGKPPLSFLPLDPLGSDLVDKFPAPSVRGSRLDTRPILDSRSSSP
As for B1, the “binding affinity to Pin1 WW domain” value is given as “high μM up to the mM range”.

B2: NF2: recombinant unphosphorylated fragment (196–293) of the N-terminal region of CPEB1 Isoform 1 (Uniprot Q9BZB8) (protein, UniProt Q9BZB8 196-293, looked up, fragment)
chain: DHLSDLISSLRISPPLPFLSLSGGGPRDPLKMGVGSRMDQEQAALAAVTPSPTSASKRWPGASVWPSWDLLEAPKDPFSIEREARLHRQAAAVNEATC
For the molecule B2, the “binding affinity to Pin1 WW domain” value was “high μM up to the mM range”.
